Experimental data reported in patent publication US20180023071A1 (PRONASCI, published 2018).
Bridges are numbered along the chain shown (N, C = ends). Where no end group is shown, it is not given here.

Target: human Low Density Lipoprotein receptor (hLDL-R) (human, UniProt P01130 22-860)
Test: cell-based or functional assay

human Low Density Lipoprotein receptor (hLDL-R), sequence (P01130 22-860): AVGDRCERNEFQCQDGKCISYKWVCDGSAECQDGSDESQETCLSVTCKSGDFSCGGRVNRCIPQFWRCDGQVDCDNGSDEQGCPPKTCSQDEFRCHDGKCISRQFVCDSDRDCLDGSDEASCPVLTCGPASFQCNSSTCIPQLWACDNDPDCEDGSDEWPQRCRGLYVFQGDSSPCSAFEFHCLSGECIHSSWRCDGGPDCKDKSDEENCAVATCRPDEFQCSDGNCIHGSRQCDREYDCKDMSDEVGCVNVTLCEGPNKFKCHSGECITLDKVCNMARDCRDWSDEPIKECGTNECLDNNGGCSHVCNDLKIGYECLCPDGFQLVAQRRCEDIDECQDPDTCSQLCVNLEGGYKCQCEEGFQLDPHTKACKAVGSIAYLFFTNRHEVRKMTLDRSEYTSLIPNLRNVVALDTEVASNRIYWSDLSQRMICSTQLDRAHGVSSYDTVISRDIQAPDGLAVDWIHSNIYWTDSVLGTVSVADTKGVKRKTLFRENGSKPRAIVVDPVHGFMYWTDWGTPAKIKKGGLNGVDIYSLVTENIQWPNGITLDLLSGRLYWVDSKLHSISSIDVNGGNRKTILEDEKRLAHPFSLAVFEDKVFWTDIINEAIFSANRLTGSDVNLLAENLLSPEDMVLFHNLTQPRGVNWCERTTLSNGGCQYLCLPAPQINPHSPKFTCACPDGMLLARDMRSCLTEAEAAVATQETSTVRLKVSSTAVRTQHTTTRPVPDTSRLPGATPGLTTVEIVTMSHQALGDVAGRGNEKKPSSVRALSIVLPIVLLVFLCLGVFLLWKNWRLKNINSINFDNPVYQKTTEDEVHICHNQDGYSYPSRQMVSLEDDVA

B1: CP3 (Loop-3 peptide), S-S bridged cyclic hPCSK9 365-384 (peptide)
peptide: GEDIIGASSDCSTCFVSQSG
modifications: disulfide 11-14
  LDL-R level in HepG2 cells (western blot, relative to TR), CP3 at 50 µM: ~3.5 fold
